The target in assay [1] is 野生型金黄色葡萄球菌α-溶血素(wtHla) (Staphylococcus aureus (strain MRSA 252)). The assay can be described thus: ELISA, wtHla coated at 2μg/mL, anti-human IgG Fab-HRP detection. Background: In an ELISA, binding on a coated surface is turned into a signal by an enzyme label.
Assay [2] shares this target. The assay can be described thus: cell-based or functional assay.

B1: 全人源Hla单克隆抗体Hla-38 (antibody, V domains shown)
VH: QVQLLESGGGVVQPGRSLRLSCIVSGFDLNSFAMHWVRQPPGKGLEWVAVIWHDGSERFYAASVKGRFTISRDTSRNTLFLQMNSLRVEDTAVYYCAKSGDYYENSGYFGSWGQGALVTVSS
VL: ELVLTQSPATLSVSPGERATLSCRASQSVGNDLAWYQQKPGQAPRLLIYGASTRATGIPARFSGSGFGTEFTLTISSLQSEDFAVYYCQQYNNWWTFGQGTKVDIK
B1: in assay [1], the concentration giving a half-maximal response (EC50) (in general, the concentration giving half of the maximal effect) amounted to 0.33 µg/mL. In assay [2], the 保护率 (mice injected i.p. with 15μg wtHla pre-incubated with 2.5μg antibody) is under 30%, the 保护率 (mice injected i.p. with 15μg wtHla pre-incubated with 5μg antibody) is under 30%, the 保护率 (mice injected i.p. with 15μg wtHla pre-incubated with 10μg antibody) stood at 50% and the 小鼠生存率 (mice injected i.p. with 15μg wtHla pre-incubated with 20μg antibody) is over 80%.

The values above are taken from patent CN116789813A.
